What follows are sequences tested on Escherichia coli TOP10 (assay: shrunken log2 fold change of peptide-encoding DNA abundance (4.5 h post-induction vs induction); higher = less antimicrobial activity (less host growth inhibition)). Conditions: time post-induction: 4.5 h; library: site-saturation at positions 5, 18, 19, 20.
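Further: peptides expressed intracellularly from a pBAD plasmid library in pooled LB shake-flask culture, induced with 0.3% L-arabinose, DNA abundance read by NGS, three biological replicates, DESeq2 with apeglm shrinkage.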

Sequence | shrunken log2 fold change
RRIRFRPPRLPRPRPRPTWMPRP | 0.611
RRIRLRPPRLPRPRPRPEMGPRP | 0.144
RRIRMRPPRLPRPRPRPHMYPRP | -0.568
RRIRPRPPRLPRPRPRPRHCPRP | 0.115
RRIRNRPPRLPRPRPRPFGIPRP | -0.0138
RRIRYRPPRLPRPRPRPSIFPRP | -0.654
RRIRDRPPRLPRPRPRPWFNPRP | -0.161
RRIRKRPPRLPRPRPRPVCTPRP | 2.01
RRIRSRPPRLPRPRPRPAIAPRP | -0.00626
RRIRERPPRLPRPRPRPMYGPRP | -0.739
RRIRMRPPRLPRPRPRPIFGPRP | 0.0873
RRIRDRPPRLPRPRPRPDCYPRP | 0.269
RRIRCRPPRLPRPRPRPGNEPRP | -0.154
RRIRKRPPRLPRPRPRPSGGPRP | 0.255
RRIRERPPRLPRPRPRPPIPPRP | 0.281
RRIRKRPPRLPRPRPRPALLPRP | 0.246
RRIRRRPPRLPRPRPRPEFNPRP | 0.25
RRIRWRPPRLPRPRPRPVFNPRP | -0.259
RRIRDRPPRLPRPRPRPDNEPRP | -0.0213
RRIRQRPPRLPRPRPRPQNHPRP | -0.481
RRIRIRPPRLPRPRPRPKVFPRP | 0.0502
RRIRIRPPRLPRPRPRPTNFPRP | -0.535
RRIRRRPPRLPRPRPRPCFYPRP | -0.187
RRIRPRPPRLPRPRPRPHTKPRP | 0.00533
RRIRERPPRLPRPRPRPVFCPRP | -0.0447

Sequence | shrunken log2 fold change
RRIRARPPRLPRPRPRPMKAPRP | 0.0595
RRIRTRPPRLPRPRPRPLVQPRP | 0.149
RRIRLRPPRLPRPRPRPPQFPRP | -0.165
RRIRKRPPRLPRPRPRPCLRPRP | -0.081
RRIRMRPPRLPRPRPRPGVDPRP | 1.68
RRIRARPPRLPRPRPRPAPSPRP | 0.787
RRIRGRPPRLPRPRPRPDVVPRP | 0.424
RRIRKRPPRLPRPRPRPYLWPRP | 0.125
RRIRMRPPRLPRPRPRPINYPRP | -0.22
RRIRARPPRLPRPRPRPYHWPRP | -0.0767
RRIRERPPRLPRPRPRPTVRPRP | -0.00266
RRIRNRPPRLPRPRPRPWQEPRP | -0.0629
RRIRSRPPRLPRPRPRPEGAPRP | 1.95
RRIRARPPRLPRPRPRPFCRPRP | 0.211
RRIRYRPPRLPRPRPRPQSVPRP | -0.11
RRIRERPPRLPRPRPRPKGSPRP | 0.00854
RRIRIRPPRLPRPRPRPIEVPRP | -0.0018
RRIRMRPPRLPRPRPRPEPSPRP | 2.72
RRIRHRPPRLPRPRPRPRRVPRP | 0.36
RRIRARPPRLPRPRPRPDKLPRP | 0.105
RRIRLRPPRLPRPRPRPWPIPRP | 0.0461
RRIRPRPPRLPRPRPRPMMVPRP | -0.0739
RRIRDRPPRLPRPRPRPFPHPRP | -0.303
RRIRPRPPRLPRPRPRPNGAPRP | 0.327
RRIRCRPPRLPRPRPRPNEHPRP | -0.553

Sequence | shrunken log2 fold change
RRIRKRPPRLPRPRPRPKSDPRP | -0.015
RRIRERPPRLPRPRPRPEHYPRP | -0.454
RRIRCRPPRLPRPRPRPNRTPRP | -0.0547
RRIRGRPPRLPRPRPRPKSCPRP | 0.959
RRIRDRPPRLPRPRPRPLAKPRP | 0.96
RRIRVRPPRLPRPRPRPHHNPRP | 0.192
RRIRSRPPRLPRPRPRPSEKPRP | 0.029
RRIRIRPPRLPRPRPRPPKVPRP | -0.0254
RRIRMRPPRLPRPRPRPAVEPRP | 0.741
RRIRFRPPRLPRPRPRPIDDPRP | -0.548
RRIRERPPRLPRPRPRPYCPPRP | -1.59
RRIRGRPPRLPRPRPRPRKEPRP | 0.363
RRIRERPPRLPRPRPRPIFPPRP | -0.367
RRIRWRPPRLPRPRPRPCAEPRP | 0.618
RRIRVRPPRLPRPRPRPVSYPRP | -0.51
RRIRYRPPRLPRPRPRPWGQPRP | 0.00911
RRIRIRPPRLPRPRPRPRYRPRP | -0.386
RRIRHRPPRLPRPRPRPIHRPRP | -0.147
RRIRMRPPRLPRPRPRPDCIPRP | 1.76
RRIRSRPPRLPRPRPRPNMHPRP | -0.257
RRIRTRPPRLPRPRPRPHENPRP | 0.00752
RRIRRRPPRLPRPRPRPSSVPRP | 0.131
RRIRIRPPRLPRPRPRPEADPRP | 0.196
RRIRGRPPRLPRPRPRPFFTPRP | 0.215
RRIRMRPPRLPRPRPRPDTAPRP | 1.24

Reference: the supplement of paper PMC9112550, “Optimization of the antimicrobial peptide Bac7 by deep mutational scanning” (BMC Biology, 2022)
